As a reminder, the stoichiometry N is the number of molecules, sites or subunits per partner or assembly.

The text below walks through data of article doi:10.1101/2023.09.28.559889 (bioRxiv, 2023).

The target in data set [1] is NatR antitoxin (PA1029), co-expressed with His-tagged NatT in E. coli (P. aeruginosa). In words: crystal structure.
Data set [2] addresses NatT toxin (PA1030), His-tagged, co-expressed with NatR in E. coli (P. aeruginosa) (UniProt Q9I4U4). Briefly: mass photometry.
The data set “crystal structure” concerns the molecule itself. Briefly: crystal structure.

In the case of “NatR antitoxin (PA1029), co-expressed with His-tagged NatT in E. coli (natural protein)”, the stoichiometry N in data set [1] and in data set [2] was 2 throughout.

B1: NatT toxin (PA1030), His-tagged, co-expressed with NatR in E. coli (enzyme)
chain: SEIWRQCKGERHIRPLQGRLVRLVESQEQVATLQLVDTLEEQALLEELLESSKPPVPADAEPLHYLLKTPFRYPPLRWGSRFGRRHEPSLFYAALKLETAMAESAYYRCVLWSGMVVPPPSGRILSEHASFEAGWKVERGIRLQAPPFSDHEAALTDIADYRAPQELGSAMRSAGVQAFEYRSARCPERGCNVALFTPAAFTEKRPRNLTPWLCETTAGYVAFKPAHVPGSPKIFSWELFLVDGKLPHPA
For the molecule B1, the “stoichiometry N” value in the data set “crystal structure” came to 2.
